Assay results: patent US20150152406A1 (NBE THERAPEUTICS, published 2015)

Target: T1, 6xHis-tagged, recombinant human CD30 (Sino Biological Inc., order #10777-H08H) (human, UniProt P28908 19-379)
T1 construct: Bought soluble reagent; It was detected with biotinylated anti-His-tag antibody and streptavidin-PE; also called CD30 antigen; CD30-6xHis
T1 sequence: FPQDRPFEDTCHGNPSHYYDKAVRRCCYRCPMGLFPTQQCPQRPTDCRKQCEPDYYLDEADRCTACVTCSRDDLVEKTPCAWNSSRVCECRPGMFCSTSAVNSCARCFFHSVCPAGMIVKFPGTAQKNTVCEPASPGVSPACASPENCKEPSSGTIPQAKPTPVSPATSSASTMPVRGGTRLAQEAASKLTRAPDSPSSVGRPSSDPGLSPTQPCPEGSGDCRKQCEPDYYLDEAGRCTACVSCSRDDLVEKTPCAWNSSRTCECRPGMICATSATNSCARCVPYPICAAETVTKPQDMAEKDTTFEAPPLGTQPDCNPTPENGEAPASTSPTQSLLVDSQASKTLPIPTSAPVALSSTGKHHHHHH
Assay: flow cytometry; 63-12 cells displaying anti-CD19 IgG as background, stained with His-tagged CD30 / anti-His-biotin / strep-PE
Procedure: After the final FACS staining, the cells were again washed twice in ice-cold PBS, 2% FCS, and then resuspended in 1.0 ml PBS, 2% FCS, after which the cells were subjected to FACS analysis and cell sorting of Ig-kappaLC/CD30 positive cells (see FIG. 13).

B1: humanized anti-human CD19 antibody hBU12, membrane bound human IgG1 on the surface of 63-12 proB cells (antibody, V domains shown)
VH: QVQLQESGPGLVKPSQTLSLTCTVSGGSISTSGMGVGWIRQHPGKGLEWIGHIWWDDDKRYNPALKSRVTISVDTSKNQFSLKLSSVTAADTAVYYCARMELWSYYFDYWGQGTLVTVSS
VL: EIVLTQSPATLSLSPGERATLSCSASSSVSYMHWYQQKPGQAPRLLIYDTSKLASGIPARFSGSGSGTDFTLTISSLEPEDVAVYYCFQGSVYPFTFGQGTKLEIK
notes: also called anti-CD19 mAb hBU12; anti-CD19 mAb
binding result: no binding (tested: 0.1 µg CD30 in 1 ml)
